Laboratory results published in the supplement of paper PMC12764529.
± gives the half width of the 95% confidence interval.

Assays:
[1] = folding stability dG unfold (combined trypsin and chymotrypsin); higher = more stable
How it was run: (§1)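 Unfolding free energy was derived, per protease or combined, by relating Bayesian-fitted K50 values from sequencing counts to a sequence-predicted unfolded-state K50 and a shared folded-state K50. The underlying digests exposed cysteine-free mini-proteins under 80 residues, in a PA-tagged cDNA display construct, to trypsin and chymotrypsin at 11 threefold-diluted concentrations and to a no-protease condition. A filter kept only designs with AlphaFold2 dimer inter-PAE above 15.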

[2] = folding stability dG unfold from trypsin proteolysis; higher = more stable
How it was run: as §1

[3] = folding stability dG unfold from chymotrypsin proteolysis; higher = more stable
How it was run: as §1

Row | Sequence | folding stability dG unfold [1] [kcal/mol] | folding stability dG unfold [2] [kcal/mol] | folding stability dG unfold [3] [kcal/mol]
1 | SAGGGLTEEQLEEEAREVAERVEKEFAEATGIEPVEILSVEVFPDGTVRITLRFKGKGGLVTYTIPLSAGGS [r16_622_TrMRF] | 3.42 ± 0.12 | 3.16 ± 0.096 | 3.58 ± 0.04
2 | SAGGGMGRIPLYGEERVEEIAAEPDVVSVEEDPETGRTYVYFERPDGYYSFTRDNETGEITEKTPLPSAGGS [r8_251_JUSTAS] | -0.237 ± 0.21 | -0.462 ± 0.23 | -0.523 ± 0.5
3 | SAGGGMKLTITVTNADGSTTTETLTLGDLEKALEFLESDPTASLASIEIKPVPDTSEVEMNVSLTVPASAGG [r13_796_JUSTAS] | 1.47 ± 0.071 | 1.29 ± 0.056 | 1.55 ± 0.035
4 | SAGGGMMTLVTLEITIPKPPDPKTGKSRPLPLTLEFEVEADDPEALEERVEEELEKIGIPEEARKLLSAGGS [r16_40_JUSTAS] | 0.698 ± 0.2 | 0.471 ± 0.092 | 0.547 ± 0.16
5 | SAGGGMNEKVIEIEVTVTAPDGKVTTNPTTVVSNSLEEVKASIKASIPPNWSITVTVLKTKSLKEVLSSAGG [r13_513_JUSTAS] | 0.659 ± 0.095 | 0.667 ± 0.03 | 0.425 ± 0.081
6 | SAGGGMSVSELKKFFPNLKPGATFVLKDPNSDRTGTGTLLSDGTIKVQLPGSEVTVPDDTLVVSISASAGGS [r8_162_JUSTAS] | 0.321 ± 0.13 | 0.585 ± 0.043 | -0.237 ± 0.27
7 | SAGGGMTPVKKEYVVTLPVPPGMTEEEARELAERAAEELRPELEAKGLAYEVTFELSPEGLVTVTVVASAGG [r13_529_JUSTAS] | 2.31 ± 0.034 | 2.19 ± 0.042 | 2.41 ± 0.025
8 | SAGGGMTVETTSKETPLPDGSLRRTETITITEPGGKPLTRTTTKIWDPSTGKVLETRPVSNATVVAESSAGG [r13_1008_JUSTAS] | -0.187 ± 0.14 | -0.944 ± 0.82 | -0.0787 ± 0.15
9 | SAGGGMTVTIEVEGSIKKSIKGISYKDDKEKKESNKNKYLKKTITVTLTAEDDPNAAAAAIAALGLGSAGGS [r16_467_JUSTAS] | 0.181 ± 0.25 | 0.144 ± 0.23 | 0.313 ± 0.21
10 | SAGGGPEEIRRAAEALAAELAAELGLEVVEVEVEVREDGTVTVRITVRLPDGSKLEITLTLPAGAPLSAGGS [r8_175_TrROS_Hall] | 1.65 ± 0.073 | 2.03 ± 0.05 | 1.15 ± 0.038
11 | SAGGGPFGIPFPFPIEDPDRLDLVEGLVAELEEFFRSLGAGPLTAERVGDTTYVVLVPFDGKPIVSGSAGGS [r16_703_TrMRF] | 1.8 ± 0.089 | 1.51 ± 0.025 | 1.95 ± 0.066
12 | SAGGGPLRTVEVELEFETEEEAEKAIKEYLEKLGLPPEKVEVSFVSREERLVEDKIVYRYKFVFTLPSAGGS [r16_240_JUSTAS] | 4.98 ± 0.17 | 4.09 ± 0.13 | 5.13 ± 0.13
13 | SAGGGSAWKVTAENLPADGYVKFPDGTTVPPGTELTVPLSAGYTDIRALDPEGNVVSVELVPLPEPKLSAGG [r13_441_JUSTAS] | -0.187 ± 0.18 | -0.15 ± 0.14 | -0.274 ± 0.29
14 | SAGGGSDTVPPVPKATITFTLPAESPEEAEAAAEEIARELEEEGGIPATATVTTDPETGTVTVTITLESAGG [r13_517_TrMRF] | 0.855 ± 0.069 | 0.971 ± 0.033 | 0.672 ± 0.059
15 | SAGGGSISISLPAEELKALSPEDVIEVTAPDGTKIKAKPVKKGDTYPVTAEDPNNPKNATEMGTATLPSAGG [r13_745_JUSTAS] | 0.176 ± 0.19 | 0.0233 ± 0.084 | 0.4 ± 0.095
16 | SAGGGSISPAIVAALRAAGASLEEIVAYLNEQGYPIASVLGEEEHHHHHHITLLLPETGETVTVELHSAGGS [r8_179_JUSTAS] | 2.79 ± 0.096 | 2.43 ± 0.068 | 3.029 ± 0.028
17 | SAGGGSMEVVKEEVSEEVEVLPNGTVLTTKTITYKTPDGKEYTETVLERVDPVTGKREVIEKKTYPSSAGGS [r16_50_JUSTAS] | 2.4 ± 0.1 | 1.59 ± 0.12 | 2.64 ± 0.045
18 | SAGGGSMFSTIYDPNSNNSIEAPLLSIREEDGRPTIEYQLPDGTRVTRPLSELGAFTLTGGAGSLTLPSAGG [r13_211_JUSTAS] | 0.774 ± 0.075 | 0.83 ± 0.052 | 0.552 ± 0.14

Row | Sequence | folding stability dG unfold [1] [kcal/mol] | folding stability dG unfold [2] [kcal/mol] | folding stability dG unfold [3] [kcal/mol]
19 | SAGGGSMKTIELTVTNPATGETVTVTLELDPSVSEEEVEARIKETEEAVEKELLAPEPPLAPTPARASAGGS [r16_191_JUSTAS] | 0.765 ± 0.062 | -0.465 ± 0.096 | 1.22 ± 0.023
20 | SAGGGSMLIRRRLLLVERIEDGLLTYDIEEEVYLPLPEPEVPVSVERRPDGSLVLTFPDGTRRLLPRSAGGS [r16_136_JUSTAS] | 2.01 ± 0.13 | 1.65 ± 0.077 | 2.39 ± 0.17
21 | SAGGGSMTPTTTTKTYNVPPELAQKILDGYPLGDKELAAALGLPPDVEVTLVSSDEDTLTVEITIPASAGGS [r16_679_JUSTAS] | 3.81 ± 0.075 | 3.48 ± 0.14 | 4.05 ± 0.068
22 | SAGGGSMVTQTEFTLPDGTKVSESTLPDGTVTTTITDPTNPTVTTSPVRTVSPGPLSPANPALVAALSAGGS [r16_482_JUSTAS] | -0.317 ± 0.1 | -1.09 ± 0.18 | -0.17 ± 0.18
23 | SAGGGSSSSSLTFTYDPATGKVLGSESFTIPSPSGEPRTNVLTLVEKNPSGTLKTTVLTRPVPPTLSSAGGS [r16_595_JUSTAS] | 2.66 ± 0.35 | 1.55 ± 0.1 | 2.62 ± 0.096
24 | SAGGGSTTTRTIGSKDGTVATVTVTTDPATGTTTVTISSPSPEVLEEVAAQLGLPVREVLPDGTVVLASAGG [r13_937_JUSTAS] | 1.08 ± 0.037 | 0.659 ± 0.023 | 1.25 ± 0.015
25 | SAGGGSTTTYSIPEGPLTLEVTTVTVGDGTVKKTVVTTPEGKRTEIPPSNPITIPPNWTVTSSVTLTSAGGS [r16_669_JUSTAS] | 0.0118 ± 0.16 | -0.114 ± 0.12 | 0.0533 ± 0.16
26 | SAGGHTIWIPFDSPEQAKELANEIARELNDHGLKVKVKVHPDDGWIKVKVDMRNNDKEKKIKIWFPFPSAGG [r13_641_TrROS] | 1.78 ± 0.36 | 0.844 ± 0.1 | 2.44 ± 0.18
27 | SAGGIAEAIGEAIAKAPGVAEVEVDIEITKIEPTPGDGAYAHIDIRVRARHPVTGEEVELRFDIVFPLDSAG [r5_176_TrMRF] | 3.05 ± 0.17 | 2.89 ± 0.14 | 3.18 ± 0.15
28 | SAGGIEDIANEFGIEDVEIEEINPEYNEVTVTFRFRGPNGNPFTWTYTIEVPPPPPPEPKMDPEDNNNSAGG [r13_608_TrROS] | 1.81 ± 0.32 | 1.06 ± 0.12 | 2.44 ± 0.16
29 | SAGGIIIYPKDPDGKQRPIPPEVIRRIVDTIARRYGFEIKIDIEIEPTNDYWVITIPIEIEGLPPEQLSAGG [r13_790_TrROS] | 2.18 ± 0.086 | 1.87 ± 0.06 | 2.23 ± 0.068
30 | SAGGIKEFADTLQDHGGTVTVEPVNNGSLKVSIQHRDPEDGRMYRMEIEIPPENNKLEIDDWEPYPNSAGGS [r16_613_TrROS] | 0.0987 ± 0.21 | 0.071 ± 0.15 | 0.31 ± 0.27
31 | SAGGIKELAKKGYEIKEVTVRVRNKDGSVYEITEIKVVDGELYIKVKNKKTGKIEEKKIPLKDIEIVPSAGG [r13_340_TrROS_Hall] | 1.83 ± 0.09 | 1.19 ± 0.045 | 2.12 ± 0.029
32 | SAGGIKIEIMFLMPLKDVRSIIDEIAKMPGIKITDVEVDIIPFENGTVMFRVTFEIEIYDPENGEPISAGGS [r8_374_TrROS] | 4.27 ± 0.36 | 3.95 ± 0.21 | 4.78 ± 0.18
33 | SAGGIPPNDPEYQQKMQLLKEIQNFAKEQQQNGRDVKIETIEINPEDGRVTITVQYPNGKKVTITIPSAGGS [r8_277_TrROS] | 1.66 ± 0.064 | 1.79 ± 0.057 | 1.56 ± 0.048
34 | SAGGIWIPIDRIREALKDGMPLDEIVDKLRKHGFPIDRITGIEPSPNSWTIEIEFPEQGMPIEIQISSAGGS [r8_179_TrROS] | 1.9 ± 0.085 | 1.93 ± 0.052 | 1.66 ± 0.035
35 | SAGGIWIPVPNADWAVDFIIEFIDQFGPGAKIDKITVYNGGKEREITPGEPPKIPPGSWFEIDLEPKSAGGS [r16_267_TrROS] | 0.984 ± 0.075 | 0.698 ± 0.037 | 1.15 ± 0.085
36 | SAGGKDGKPKPKVEPEITVQFYIPLPPDDLTPEEIAQWMSDHFGFPFTNVEIERHPEDNYYRVSFTIRSAGG [r13_457_TrROS] | 2.4 ± 0.086 | 1.86 ± 0.064 | 2.56 ± 0.1
